These results are taken from paper PMC3735830 (Nature structural & molecular biology, 2013).

Test [1] addresses T1, Orc1 (S. cerevisiae, UniProt P54784 1-914).
T1 sequence: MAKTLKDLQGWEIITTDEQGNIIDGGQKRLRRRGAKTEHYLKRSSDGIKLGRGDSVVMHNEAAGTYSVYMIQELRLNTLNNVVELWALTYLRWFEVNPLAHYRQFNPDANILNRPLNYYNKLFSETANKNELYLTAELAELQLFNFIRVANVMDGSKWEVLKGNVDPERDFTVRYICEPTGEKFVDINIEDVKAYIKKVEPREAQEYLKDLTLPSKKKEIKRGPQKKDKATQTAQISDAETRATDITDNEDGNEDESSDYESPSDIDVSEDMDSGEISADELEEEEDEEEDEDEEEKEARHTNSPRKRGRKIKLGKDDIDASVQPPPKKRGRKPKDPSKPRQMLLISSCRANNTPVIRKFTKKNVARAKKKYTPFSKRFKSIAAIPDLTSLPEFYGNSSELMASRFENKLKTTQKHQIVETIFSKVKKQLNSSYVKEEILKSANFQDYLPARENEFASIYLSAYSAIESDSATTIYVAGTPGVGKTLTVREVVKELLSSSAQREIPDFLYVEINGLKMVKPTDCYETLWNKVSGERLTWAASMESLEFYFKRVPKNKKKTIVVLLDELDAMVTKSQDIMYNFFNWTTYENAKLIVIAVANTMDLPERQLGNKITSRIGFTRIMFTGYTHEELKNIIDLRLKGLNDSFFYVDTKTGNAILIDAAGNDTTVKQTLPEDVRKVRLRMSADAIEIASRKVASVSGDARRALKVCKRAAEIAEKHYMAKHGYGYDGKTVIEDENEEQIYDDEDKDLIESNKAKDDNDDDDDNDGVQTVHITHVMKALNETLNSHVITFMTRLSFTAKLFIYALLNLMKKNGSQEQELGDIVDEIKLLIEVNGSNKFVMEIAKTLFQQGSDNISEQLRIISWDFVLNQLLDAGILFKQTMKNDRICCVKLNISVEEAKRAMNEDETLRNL
As to the kind of experiment: cryo-EM structure.

For test [2], the target named is T2, Orc3 (S. cerevisiae, UniProt P54790 1-616).
T2 sequence: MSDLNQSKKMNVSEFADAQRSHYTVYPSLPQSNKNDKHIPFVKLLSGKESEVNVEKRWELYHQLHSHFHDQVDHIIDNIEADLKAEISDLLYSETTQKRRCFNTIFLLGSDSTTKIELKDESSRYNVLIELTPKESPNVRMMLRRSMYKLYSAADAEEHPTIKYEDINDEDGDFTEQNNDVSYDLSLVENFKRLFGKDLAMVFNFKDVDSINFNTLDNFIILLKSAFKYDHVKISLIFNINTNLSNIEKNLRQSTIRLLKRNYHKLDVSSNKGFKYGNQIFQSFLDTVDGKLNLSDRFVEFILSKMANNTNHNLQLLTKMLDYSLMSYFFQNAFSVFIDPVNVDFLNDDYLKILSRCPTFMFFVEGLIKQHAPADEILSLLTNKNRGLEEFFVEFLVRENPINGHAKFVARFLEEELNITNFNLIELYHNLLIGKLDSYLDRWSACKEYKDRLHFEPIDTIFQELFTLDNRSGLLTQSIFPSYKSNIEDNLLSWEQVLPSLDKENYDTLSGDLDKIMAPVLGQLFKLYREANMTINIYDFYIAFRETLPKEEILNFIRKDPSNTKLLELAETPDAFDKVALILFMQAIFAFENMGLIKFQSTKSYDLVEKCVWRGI
As to the kind of experiment: cryo-EM structure.

For test [3], the target named is T3, Mcm4 (S. cerevisiae, UniProt P30665 1-933).
T3 sequence: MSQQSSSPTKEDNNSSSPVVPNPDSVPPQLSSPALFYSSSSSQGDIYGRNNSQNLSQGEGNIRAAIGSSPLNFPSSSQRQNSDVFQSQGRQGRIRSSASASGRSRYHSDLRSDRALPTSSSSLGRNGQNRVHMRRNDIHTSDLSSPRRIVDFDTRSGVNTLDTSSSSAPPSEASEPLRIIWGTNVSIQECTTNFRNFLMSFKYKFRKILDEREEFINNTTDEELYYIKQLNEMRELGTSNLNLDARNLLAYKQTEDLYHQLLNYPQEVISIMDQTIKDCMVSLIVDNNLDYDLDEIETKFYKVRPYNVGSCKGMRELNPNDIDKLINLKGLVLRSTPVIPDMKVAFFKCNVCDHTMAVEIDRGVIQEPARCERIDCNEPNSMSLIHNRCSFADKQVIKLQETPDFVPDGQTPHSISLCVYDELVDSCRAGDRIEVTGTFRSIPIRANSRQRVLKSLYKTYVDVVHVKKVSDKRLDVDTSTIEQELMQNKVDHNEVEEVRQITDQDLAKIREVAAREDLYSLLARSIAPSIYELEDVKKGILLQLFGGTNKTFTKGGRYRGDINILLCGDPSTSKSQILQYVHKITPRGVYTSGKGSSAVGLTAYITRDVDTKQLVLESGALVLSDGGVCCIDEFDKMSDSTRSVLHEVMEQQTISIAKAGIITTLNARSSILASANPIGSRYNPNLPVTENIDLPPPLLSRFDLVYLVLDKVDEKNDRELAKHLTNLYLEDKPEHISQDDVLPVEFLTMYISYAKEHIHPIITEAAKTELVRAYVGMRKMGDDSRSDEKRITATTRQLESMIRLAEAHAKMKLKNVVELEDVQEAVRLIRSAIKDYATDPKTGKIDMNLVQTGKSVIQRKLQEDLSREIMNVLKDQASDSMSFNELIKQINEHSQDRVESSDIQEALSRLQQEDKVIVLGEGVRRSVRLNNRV
Nature of the test: cryo-EM structure.

The target in test [4] is Mcm3 (S. cerevisiae, UniProt P24279 1-971). As to the kind of experiment: cryo-EM structure.
For test [5], the target named is T4, Mcm2 (S. cerevisiae, UniProt P29469 1-868).
T4 sequence: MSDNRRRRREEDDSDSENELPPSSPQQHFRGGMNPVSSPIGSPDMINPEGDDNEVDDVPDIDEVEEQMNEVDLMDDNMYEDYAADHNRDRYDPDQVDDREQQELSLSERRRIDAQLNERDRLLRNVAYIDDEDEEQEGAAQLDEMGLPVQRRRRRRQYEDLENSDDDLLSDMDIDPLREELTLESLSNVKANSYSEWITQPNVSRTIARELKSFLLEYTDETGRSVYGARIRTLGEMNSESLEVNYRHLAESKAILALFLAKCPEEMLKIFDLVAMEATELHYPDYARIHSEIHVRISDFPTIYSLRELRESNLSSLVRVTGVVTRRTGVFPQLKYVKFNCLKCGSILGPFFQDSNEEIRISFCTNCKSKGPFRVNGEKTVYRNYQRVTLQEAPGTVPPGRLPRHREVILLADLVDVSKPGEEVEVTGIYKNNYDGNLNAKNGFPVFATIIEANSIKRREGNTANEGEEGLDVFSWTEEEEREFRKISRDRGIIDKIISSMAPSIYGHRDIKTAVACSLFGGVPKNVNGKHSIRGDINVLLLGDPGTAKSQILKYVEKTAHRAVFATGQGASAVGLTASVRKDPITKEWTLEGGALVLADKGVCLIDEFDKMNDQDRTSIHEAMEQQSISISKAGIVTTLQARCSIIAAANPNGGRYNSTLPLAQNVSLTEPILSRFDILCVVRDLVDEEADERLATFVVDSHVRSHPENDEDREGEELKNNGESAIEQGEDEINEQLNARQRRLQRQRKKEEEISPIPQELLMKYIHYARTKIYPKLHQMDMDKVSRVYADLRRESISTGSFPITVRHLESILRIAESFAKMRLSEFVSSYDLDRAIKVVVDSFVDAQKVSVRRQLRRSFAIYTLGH
As to the kind of experiment: co-IP.

Test [6] has as its target Mcm6 (S. cerevisiae, UniProt P53091 1-1017). Nature of the test: cryo-EM structure.

Sequence of Mcm6 (P53091 whole entry): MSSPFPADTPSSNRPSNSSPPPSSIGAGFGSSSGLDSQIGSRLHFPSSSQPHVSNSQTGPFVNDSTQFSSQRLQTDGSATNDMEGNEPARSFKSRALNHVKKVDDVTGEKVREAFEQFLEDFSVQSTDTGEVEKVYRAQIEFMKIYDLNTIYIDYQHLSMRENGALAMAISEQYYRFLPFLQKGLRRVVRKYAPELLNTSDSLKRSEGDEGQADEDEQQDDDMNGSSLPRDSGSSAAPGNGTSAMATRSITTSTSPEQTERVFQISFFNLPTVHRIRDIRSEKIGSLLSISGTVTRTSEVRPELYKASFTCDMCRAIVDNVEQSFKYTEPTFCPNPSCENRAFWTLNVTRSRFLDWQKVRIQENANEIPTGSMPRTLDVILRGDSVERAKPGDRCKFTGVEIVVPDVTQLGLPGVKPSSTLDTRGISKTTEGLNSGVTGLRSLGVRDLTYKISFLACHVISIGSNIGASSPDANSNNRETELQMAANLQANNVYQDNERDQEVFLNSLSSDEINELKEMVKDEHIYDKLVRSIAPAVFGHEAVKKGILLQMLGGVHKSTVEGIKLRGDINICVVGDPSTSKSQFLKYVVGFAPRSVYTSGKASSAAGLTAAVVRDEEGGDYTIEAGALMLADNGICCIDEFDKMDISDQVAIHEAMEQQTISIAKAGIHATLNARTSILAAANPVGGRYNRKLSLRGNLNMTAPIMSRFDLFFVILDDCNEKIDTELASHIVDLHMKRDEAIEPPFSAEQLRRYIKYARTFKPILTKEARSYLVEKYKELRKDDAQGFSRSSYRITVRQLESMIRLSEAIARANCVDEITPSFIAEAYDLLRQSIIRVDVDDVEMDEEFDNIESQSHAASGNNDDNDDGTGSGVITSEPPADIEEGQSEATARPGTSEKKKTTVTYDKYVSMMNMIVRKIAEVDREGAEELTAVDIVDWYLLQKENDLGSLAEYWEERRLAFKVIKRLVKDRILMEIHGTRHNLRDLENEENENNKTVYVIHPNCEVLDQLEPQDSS
Sequence of Mcm3 (P24279 whole entry): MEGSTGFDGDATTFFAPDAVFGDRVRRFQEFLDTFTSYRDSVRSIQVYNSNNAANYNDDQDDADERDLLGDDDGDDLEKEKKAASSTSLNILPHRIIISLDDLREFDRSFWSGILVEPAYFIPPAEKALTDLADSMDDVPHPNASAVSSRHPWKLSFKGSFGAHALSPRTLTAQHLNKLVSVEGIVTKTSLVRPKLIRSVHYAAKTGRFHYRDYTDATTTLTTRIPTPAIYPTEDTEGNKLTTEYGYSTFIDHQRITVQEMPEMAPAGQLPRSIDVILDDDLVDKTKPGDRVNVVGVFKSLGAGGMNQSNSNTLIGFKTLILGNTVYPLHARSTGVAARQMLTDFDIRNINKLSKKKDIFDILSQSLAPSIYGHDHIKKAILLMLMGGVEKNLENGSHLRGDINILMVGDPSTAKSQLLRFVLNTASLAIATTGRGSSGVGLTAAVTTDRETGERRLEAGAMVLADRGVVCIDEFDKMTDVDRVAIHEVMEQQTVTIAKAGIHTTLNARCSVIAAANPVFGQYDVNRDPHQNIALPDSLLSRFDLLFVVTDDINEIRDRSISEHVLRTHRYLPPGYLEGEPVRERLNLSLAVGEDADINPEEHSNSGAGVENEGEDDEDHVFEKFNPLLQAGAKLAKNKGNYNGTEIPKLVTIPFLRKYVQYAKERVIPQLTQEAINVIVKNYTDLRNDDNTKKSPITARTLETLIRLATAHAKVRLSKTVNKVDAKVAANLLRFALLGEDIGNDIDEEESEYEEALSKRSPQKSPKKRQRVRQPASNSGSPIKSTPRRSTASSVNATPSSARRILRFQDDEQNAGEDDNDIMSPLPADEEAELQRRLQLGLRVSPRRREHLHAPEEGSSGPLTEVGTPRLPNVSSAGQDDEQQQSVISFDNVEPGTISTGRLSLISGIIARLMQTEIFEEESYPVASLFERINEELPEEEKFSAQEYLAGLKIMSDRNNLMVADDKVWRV

B1: Cdc6 (natural protein)
chain: MSAIPITPTKRIRRNLFDDAPATPPRPLKRKKLQFTDVTPESSPEKLQFGSQSIFLRTKALLQKSSELVNLNSSDGALPARTAEYEQVMNFLAKAISEHRSDSLYITGPPGTGKTAQLDMIIRQKFQSLPLSLSTPRSKDVLRHTNPNLQNLSWFELPDGRLESVAVTSINCISLGEPSSIFQKIFDSFQDLNGPTLQIKNMQHLQKFLEPYHKKTTFVVVLDEMDRLLHANTSETQSVRTILELFLLAKLPTVSFVLIGMANSLDMKDRFLSRLNLDRGLLPQTIVFQPYTAEQMYEIVIQKMSSLPTIIFQPMAIKFAAKKCAGNTGDLRKLFDVLRGSIEIYELEKRFLLSPTRGSLNSAQVPLTPTTSPVKKSYPEPQGKIGLNYIAKVFSKFVNNNSTRTRIAKLNIQQKLILCTIIQSLKLNSDATIDESFDHYIKAITKTDTLAPLQRNEFLEICTILETCGLVSIKKTKCKGKTKRFVDKIDVDLDMREFYDEMTKISILKPFLH
In the case of B1, the binding result in test [1] and in test [2] was “binds” in each case.

B2: Orc4 (natural protein)
chain: MTISEARLSPQVNLLPIKRHSNEEVEETAAILKKRTIDNEKCKDSDPGFGSLQRRLLQQLYGTLPTDEKIIFTYLQDCQQEIDRIIKQSIIQKESHSVILVGPRQSYKTYLLDYELSLLQQSYKEQFITIRLNGFIHSEQTAINGIATQLEQQLQKIHGSEEKIDDTSLETISSGSLTEVFEKILLLLDSTTKTRNEDSGEVDRESITKITVVFIFDEIDTFAGPVRQTLLYNLFDMVEHSRVPVCIFGCTTKLNILEYLEKRVKSRFSQRVIYMPQIQNLDDMVDAVRNLLTVRSEISPWVSQWNETLEKELSDPRSNLNRHIRMNFETFRSLPTLKNSIIPLVATSKNFGSLCTAIKSCSFLDIYNKNQLSNNLTGRLQSLSDLELAILISAARVALRAKDGSFNFNLAYAEYEKMIKAINSRIPTVAPTTNVGTGQSTFSIDNTIKLWLKKDVKNVWENLVQLDFFTEKSAVGLRDNATAAFYASNYQFQGTMIPFDLRSYQMQIILQELRRIIPKSNMYYSWTQL
Take B2: in test [1], the binding result is reported as “binds”.

B3: Mcm7 (natural protein)
chain: MSAALPSIQLPVDYNNLFNEITDFLVTFKQDTLSSDATRNENEDENLDAENIEQHLLEKGPKYMAMLQKVANRELNSVIIDLDDILQYQNEKFLQGTQADDLVSAIQQNANHFTELFCRAIDNNMPLPTKEIDYKDDVLDVILNQRRLRNERMLSDRTNEIRSENLMDTTMDPPSSMNDALREVVEDETELFPPNLTRRYFLYFKPLSQNCARRYRKKAISSKPLSVRQIKGDFLGQLITVRGIITRVSDVKPAVEVIAYTCDQCGYEVFQEVNSRTFTPLSECTSEECSQNQTKGQLFMSTRASKFSAFQECKIQELSQQVPVGHIPRSLNIHVNGTLVRSLSPGDIVDVTGIFLPAPYTGFKALKAGLLTETYLEAQFVRQHKKKFASFSLTSDVEERVMELITSGDVYNRLAKSIAPEIYGNLDVKKALLLLLVGGVDKRVGDGMKIRGDINVCLMGDPGVAKSQLLKAICKISPRGVYTTGKGSSGVGLTAAVMKDPVTDEMILEGGALVLADNGICCIDEFDKMDESDRTAIHEVMEQQTISISKAGINTTLNARTSILAAANPLYGRYNPRLSPLDNINLPAALLSRFDILFLMLDIPSRDDDEKLAEHVTYVHMHNKQPDLDFTPVEPSKMREYIAYAKTKRPVMSEAVNDYVVQAYIRLRQDSKREMDSKFSFGQATPRTLLGIIRLSQALAKLRLADMVDIDDVEEALRLVRVSKESLYQETNKSKEDESPTTKIFTIIKKMLQETGKNTLSYENIVKTVRLRGFTMLQLSNCIQEYSYLNVWHLINEGNTLKFVDDGTMDTDQEDSLVSTPKLAPQTTASANVSAQDSDIDLQDA
Regarding B3, the binding result in test [3], in test [4] and in test [5] was “binds” throughout.

B4: Cdt1 (natural protein)
chain: MSGTANSRRKEVLRVPVIDLNRVSDEEQLLPVVRAILLQHDTFLLKNYANKAVLDALLAGLTTKDLPDTSQGFDANFTGTLPLEDDVWLEQYIFDTDPQLRFDRKCRNESLCSIYSRLFKLGLFFAQLCVKSVVSSAELQDCISTSHYATKLTRYFNDNGSTHDGADAGATVLPTGDDFQYLFERDYVTFLPTGVLTIFPCAKAIRYKPSTMATTDNSWVSIDEPDCLLFHTGTLLARWSQGMHTTSPLQIDPRANIVSLTIWPPLTTPISSKGEGTIANHLLEQQIKAFPKVAQQYYPRELSILRLQDAMKFVKELFTVCETVLSLNALSRSTGVPPELHVLLPQISSMMKRKIVQDDILKLLTIWSDAYVVELNSRGELTMNLPKRDNLTTLTNKSRTLAFVERAESWYQQVIASKDEIMTDVPAFKINKRRSSSNSKTVLSSKVQTKSSNANALNNSRYLANSKENFMYKEKMPDSQANLMDRLRERERRSAALLSQRQKRYQQFLAMKMTQVFDILFSLTRGQPYTETYLSSLIVDSLQDSNNPIGTKEASEILAGLQGILPMDISVHQVDGGLKVYRWNSLDKNRFSKLLQIHKSKQQD
B4: the binding result in test [6] was “binds”.
